This experiment concerns the target Cov-S-RBD-His (SARS-CoV-2, UniProt P0DTC2 319-537).

B1: S4B3-mIgG2a (antibody, V domains shown)
VH: QVQLQQSGAELVKPGASVKMSCKASGYIFNSYSIHWVKKTPGQGLEWIGAIYPGNGDTSNSQRFKGKATLTADKSSSTVYMQLSRLTSEDSAVYYCARDGYDDSYGLDYWGQGTSVTVSS
VL: DIVMTQSQKFMSTSVGDRVSVTCKASQNVGTNVAWYQQKPGQSPKALIYSASYRYSGVPDRFTGSGSGTDFTLTISNVQSEDLAEYFCQQYNSYPLTFGGGTKLEIKR
On to B1, for which the Kd (as a rule, the constant that tells how readily two partners part at equilibrium) amounted to 22.8 nM.

The values are drawn from patent CN116836268A (BEIJING WISDOMAB BIOTECHNOLOGY CO LTD, dated 2023).
